Patent US20230146665A1 (Xencor, published 2023)

Biological target: T1, IL18BP (human, UniProt O95998 31-194)
T1 construct: also called ILBP antigen
T1 sequence (looked up): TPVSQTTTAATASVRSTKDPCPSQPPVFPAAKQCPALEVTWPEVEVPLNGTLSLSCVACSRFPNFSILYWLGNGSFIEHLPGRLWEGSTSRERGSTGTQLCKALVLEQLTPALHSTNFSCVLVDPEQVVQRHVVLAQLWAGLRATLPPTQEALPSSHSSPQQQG
Assay: Octet (BLI), IL18BP as ligand on the biosensor, IL18 fusion as analyte
Text: Binding of variant IL18 to IL18 receptors or IL18BP were investigated using Octet, a BioLayer Interferometry (BLI)-based method. Experimental steps for Octet generally include the following: Immobilization (capture of ligand to a biosensor); Association (dipping of ligand-coated biosensors into wells containing serial dilutions of the analyte); and Dissociation (returning of biosensors to well containing buffer) in order to determine the affinity of the test articles. A reference well containing buffer alone was also included in the method for background correction during data processing. In particular, ligands used were IL18R1, IL18R1xIL18RAP heterodimer, or IL18BP, and the analytes were IL18 fusions. Illustrative sequences for these antigens are depicted in FIGS. 1-3 (respectively for human, mouse, and cynomolgus monkey).

B1: XENP40253 (Fc fusion)
chain: YFGKLESKLSVIRNLNDQVLFIDQGNRPLFEDMTDSDSRDNAPRTIFIISMYDDSQPRGMAVTISVKSEKISTLSSENKIISFKEMNPPDNIKDTKSDIIFFQRSVPGHDNKMQFESSSYEGYFLASEKERDLFKLILKKEDELGDRSIMFTVQNEDEPKSSDKTHTCPPCPAPPVAGPSVFLFPPKPKDTLMISRTPEVTCVVVDVKHEDPEVKFNWYVDGVEVHNAKTKPREEEYNSTYRVVSVLTVLHQDWLNGKEYKCKVSNKALPAPIEKTISKAKGQPREPQVYTLPPSREEMTKNQVSLTCDVSGFYPSDIAVEWESDGQPENNYKTTPPVLDSDGSFFLYSKLTVDKSRWEQGDVFSCSVMHEALHNHYTQKSLSLSPG
heavy: QVQLQESGPGLVRPSQTLSLTCTVSGFSLTGYGVNWVRQPPGRGLEWIGMIWGDGNTDYNSALKSRVTMLKDTSKNQFSLRLSSVTAADTAVYYCARERDYRLDYWGQGSLVTVSSASTKGPSVFPLAPSSKSTSGGTAALGCLVKDYFPEPVTVSWNSGALTSGVHTFPAVLQSSGLYSLSSVVTVPSSSLGTQTYICNVNHKPSNTKVDKKVEPKSCDKTHTCPPCPAPPVAGPSVFLFPPKPKDTLMISRTPEVTCVVVDVKHEDPEVKFNWYVDGVEVHNAKTKPREEQYNSTYRVVSVLTVLHQDWLNGKEYKCKVSNKALPAPIEKTISKAKGQPREPQVYTLPPSREQMTKNQVKLTCLVKGFYPSDIAVEWESNGQPENNYKTTPPVLDSDGSFFLYSKLTVDKSRWQQGNVFSCSVMHEALHNRFTQKSLSLSPG
light: DIQMTQSPSSLSASVGDRVTITCRASGNIHNYLAWYQQKPGKAPKLLIYYTTTLADGVPSRFSGSGSGTDYTFTISSLQPEDIATYYCQHFWSTPRTFGQGTKVEIKRTVAAPSVFIFPPSDEQLKSGTASVVCLLNNFYPREAKVQWKVDNALQSGNSQESVTEQDSKDSTYSLSSTLTLSKADYEKHKVYACEVTHQGLSSPVTKSFNRGEC
notes: also called K53D single substitution variant; K53D
binding result: no binding
